In patent US20130005646A1 (Novo Nordisk, published 2013):
Starred links: 1 amine or outer side, 2 acyl side, 3 side chain; linkers in the order of their positions; H or OH if unused. Positions of bridges follow the written chain, without caps; N, C: chain ends. Groups on a side chain read outwards from the residue. No end group written: not given here. *: point of attachment. C20 diacid = O=C(O)CCCCCCCCCCCCCCCCCCC(=O)*; C18 diacid = O=C(O)CCCCCCCCCCCCCCCCC(=O)*; γGlu = O=C(O)[C@H](CCC(=O)[*:2])N[*:1]; AEEA = NCCOCCOCC(=O)O

T1: human amylin 3(a) receptor (human calcitonin receptor + RAMP-3) (human, UniProt P30988 25-474; O60896 24-148)
T1 sequence (looked up) 1: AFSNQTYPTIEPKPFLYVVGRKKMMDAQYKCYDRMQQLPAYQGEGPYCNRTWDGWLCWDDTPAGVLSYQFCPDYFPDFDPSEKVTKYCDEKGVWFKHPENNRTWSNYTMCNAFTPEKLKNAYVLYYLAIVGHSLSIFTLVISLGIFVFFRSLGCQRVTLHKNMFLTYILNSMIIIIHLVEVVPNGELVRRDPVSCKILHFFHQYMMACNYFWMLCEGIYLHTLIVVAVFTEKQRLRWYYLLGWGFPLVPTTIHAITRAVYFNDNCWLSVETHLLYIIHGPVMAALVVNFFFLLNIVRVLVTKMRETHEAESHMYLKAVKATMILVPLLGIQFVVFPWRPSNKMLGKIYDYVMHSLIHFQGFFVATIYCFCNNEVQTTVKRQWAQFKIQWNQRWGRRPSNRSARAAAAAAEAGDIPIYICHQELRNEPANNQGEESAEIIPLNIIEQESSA
T1 sequence (looked up) 2: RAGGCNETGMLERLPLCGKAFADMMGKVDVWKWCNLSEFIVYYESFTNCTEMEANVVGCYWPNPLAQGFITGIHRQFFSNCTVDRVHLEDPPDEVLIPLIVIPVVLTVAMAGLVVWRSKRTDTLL

T2: human calcitonin (a) receptor (human, UniProt P30988 25-474)
T2 sequence (looked up): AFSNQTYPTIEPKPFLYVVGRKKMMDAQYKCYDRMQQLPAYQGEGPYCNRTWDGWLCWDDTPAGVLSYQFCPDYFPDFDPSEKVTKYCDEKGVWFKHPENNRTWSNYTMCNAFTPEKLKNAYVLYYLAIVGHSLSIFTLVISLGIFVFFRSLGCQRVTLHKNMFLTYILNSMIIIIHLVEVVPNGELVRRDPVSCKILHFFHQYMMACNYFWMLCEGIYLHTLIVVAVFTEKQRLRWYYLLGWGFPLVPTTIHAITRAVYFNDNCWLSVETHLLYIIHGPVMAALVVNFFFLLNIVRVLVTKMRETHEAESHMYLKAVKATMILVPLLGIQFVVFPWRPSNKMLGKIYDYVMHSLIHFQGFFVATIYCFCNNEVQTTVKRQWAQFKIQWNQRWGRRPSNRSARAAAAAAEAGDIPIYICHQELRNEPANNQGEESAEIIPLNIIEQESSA


Assays:
[1] = biological target: T1, human amylin 3(a) receptor (human …); assay: cell-based or functional assay
[2] = biological target: T2, human calcitonin (a) receptor; assay: cell-based or functional assay

Binder | Amylin receptor human EC50 [1] [nM] | CTa receptor human EC50 [2] [nM]
KCNTATCATQRLAEFLVHSSK([AEEA-AEEA-γGlu-19‑carboxyheptadecanoyl])NFGPILPSTNVGSHTY-NH2 (disulfide 2-7) | 1.09 | 0.48
KCNTATCATQRLAEFLVHSSK([AEEA-AEEA-γGlu-19‑carboxyheptadecanoyl])NFGPILSSTNVGSHTY-NH2 (disulfide 2-7) | 0.858 | 0.336
{C20 diacid-γGlu}-ERECNTATCATQRLAEFLRHSSNNFGPILPPTNVGSNTP-NH2 (disulfide 4-9; SMILES CC[C@H](C)[C@H](NC(=O)[C@@H]1CCCN1C(=O)CNC(=O)[C@H](Cc1ccccc1)NC(=O)[C@H](CC(N)=O)NC(=O)[C@H](CC(N)=O)NC(=O)[C@H](CO)NC(=O)[C@H](CO)NC(=O)[C@H](Cc1c[nH]cn1)NC(=O)[C@H](CCCNC(=N)N)NC(=O)[C@H](CC(C)C)NC(=O)[C@H](Cc1ccccc1)NC(=O)[C@H](CCC(=O)O)NC(=O)[C@H](C)NC(=O)[C@H](CC(C)C)NC(=O)[C@H](CCCNC(=N)N)NC(=O)[C@H](CCC(N)=O)NC(=O)[C@@H](NC(=O)[C@H](C)NC(=O)[C@@H]1CSSC[C@H](NC(=O)[C@H](CCC(=O)O)NC(=O)[C@H](CCCNC(=N)N)NC(=O)[C@H](CCC(=O)O)NC(=O)CC[C@H](NC(=O)CCCCCCCCCCCCCCCCCCC(=O)O)C(=O)O)C(=O)N[C@@H](CC(N)=O)C(=O)N[C@@H]([C@@H](C)O)C(=O)N[C@@H](C)C(=O)N[C@@H]([C@@H](C)O)C(=O)N1)[C@@H](C)O)C(=O)N[C@@H](CC(C)C)C(=O)N1CCC[C@H]1C(=O)N1CCC[C@H]1C(=O)N[C@H](C(=O)N[C@@H](CC(N)=O)C(=O)N[C@H](C(=O)NCC(=O)N[C@@H](CO)C(=O)N[C@@H](CC(N)=O)C(=O)N[C@H](C(=O)N1CCC[C@H]1C(N)=O)[C@@H](C)O)C(C)C)[C@@H](C)O) | 0.0895 | 0.367
KCNTATCATQRLAEFLVHSSK([AEEA-AEEA-γGlu-19‑carboxyheptadecanoyl])NFGPILPPTNVGSHTY-NH2 (disulfide 2-7) | 0.999 | 0.601
KCNTATCATQRLANFLHHSSHNFGK([AEEA-AEEA-γGlu-19‑carboxyheptadecanoyl])ILSSTNVGSHTY-NH2 (disulfide 2-7) | 0.39 | 0.194
KCNTATCATQRLAEFLVHSSNNFGK([AEEA-AEEA-γGlu-C18 diacid])ILPPTNVGSNTY-NH2 (disulfide 2-7; N-terminus assumed; SMILES CC[C@H](C)[C@H](NC(=O)[C@H](CCCCNC(=O)COCCOCCNC(=O)COCCOCCNC(=O)CC[C@H](NC(=O)CCCCCCCCCCCCCCCCC(=O)O)C(=O)O)NC(=O)CNC(=O)[C@H](Cc1ccccc1)NC(=O)[C@H](CC(N)=O)NC(=O)[C@H](CC(N)=O)NC(=O)[C@H](CO)NC(=O)[C@H](CO)NC(=O)[C@H](Cc1c[nH]cn1)NC(=O)[C@@H](NC(=O)[C@H](CC(C)C)NC(=O)[C@H](Cc1ccccc1)NC(=O)[C@H](CCC(=O)O)NC(=O)[C@H](C)NC(=O)[C@H](CC(C)C)NC(=O)[C@H](CCCNC(=N)N)NC(=O)[C@H](CCC(N)=O)NC(=O)[C@@H](NC(=O)[C@H](C)NC(=O)[C@@H]1CSSC[C@H](NC(=O)[C@@H](N)CCCCN)C(=O)N[C@@H](CC(N)=O)C(=O)N[C@@H]([C@@H](C)O)C(=O)N[C@@H](C)C(=O)N[C@@H]([C@@H](C)O)C(=O)N1)[C@@H](C)O)C(C)C)C(=O)N[C@@H](CC(C)C)C(=O)N1CCC[C@H]1C(=O)N1CCC[C@H]1C(=O)N[C@H](C(=O)N[C@@H](CC(N)=O)C(=O)N[C@H](C(=O)NCC(=O)N[C@@H](CO)C(=O)N[C@@H](CC(N)=O)C(=O)N[C@H](C(=O)N[C@@H](Cc1ccc(O)cc1)C(N)=O)[C@@H](C)O)C(C)C)[C@@H](C)O) | 0.076 | 0.101
KCNTATCATQRLAEFLHHSSSNFGK([AEEA-AEEA-γGlu-19‑carboxyheptadecanoyl])ILSSTNVGSHTY-NH2 (disulfide 2-7) | 0.416 | 0.142

Second part, the binder after the results:

Amylin receptor human EC50 [1] [nM] | CTa receptor human EC50 [2] [nM] | Binder
0.0555 | 0.0315 | {C20 diacid-γGlu}-KCNTATCATQRLAEFLHHSSQNFGPILPPTNVGSNTP-NH2 (disulfide 2-7; SMILES CC[C@H](C)[C@H](NC(=O)[C@@H]1CCCN1C(=O)CNC(=O)[C@H](Cc1ccccc1)NC(=O)[C@H](CC(N)=O)NC(=O)[C@H](CCC(N)=O)NC(=O)[C@H](CO)NC(=O)[C@H](CO)NC(=O)[C@H](Cc1c[nH]cn1)NC(=O)[C@H](Cc1c[nH]cn1)NC(=O)[C@H](CC(C)C)NC(=O)[C@H](Cc1ccccc1)NC(=O)[C@H](CCC(=O)O)NC(=O)[C@H](C)NC(=O)[C@H](CC(C)C)NC(=O)[C@H](CCCNC(=N)N)NC(=O)[C@H](CCC(N)=O)NC(=O)[C@@H](NC(=O)[C@H](C)NC(=O)[C@@H]1CSSC[C@H](NC(=O)[C@H](CCCCN)NC(=O)CC[C@H](NC(=O)CCCCCCCCCCCCCCCCCCC(=O)O)C(=O)O)C(=O)N[C@@H](CC(N)=O)C(=O)N[C@@H]([C@@H](C)O)C(=O)N[C@@H](C)C(=O)N[C@@H]([C@@H](C)O)C(=O)N1)[C@@H](C)O)C(=O)N[C@@H](CC(C)C)C(=O)N1CCC[C@H]1C(=O)N1CCC[C@H]1C(=O)N[C@H](C(=O)N[C@@H](CC(N)=O)C(=O)N[C@H](C(=O)NCC(=O)N[C@@H](CO)C(=O)N[C@@H](CC(N)=O)C(=O)N[C@H](C(=O)N1CCC[C@H]1C(N)=O)[C@@H](C)O)C(C)C)[C@@H](C)O) [N-alpha-[(S)-4-Carboxy-4-(19-carboxynonadecanoylamino)butyryl]-[Glu14,His17,Gln21,Pro37]-pramlintide]
0.391 | 0.247 | {C20 diacid-γGlu}-EKCNTATCATQRLAEFLHHSSQNFGPILPPTNVGSHTY-NH2 (disulfide 3-8; not fully specified; printed as N-alpha-[(S)-4-Carboxy-4-(19-carboxynonadecanoylamino)butyryl]-Glu-[Glu14,His17,Gln21,His35]-pramlintide)
0.136 | 0.378 | {C20 diacid-γGlu}-ERECNTATCATQRLAEFLHHSSNNFGPILPPTNVGSNTP-NH2 (disulfide 4-9; SMILES CC[C@H](C)[C@H](NC(=O)[C@@H]1CCCN1C(=O)CNC(=O)[C@H](Cc1ccccc1)NC(=O)[C@H](CC(N)=O)NC(=O)[C@H](CC(N)=O)NC(=O)[C@H](CO)NC(=O)[C@H](CO)NC(=O)[C@H](Cc1c[nH]cn1)NC(=O)[C@H](Cc1c[nH]cn1)NC(=O)[C@H](CC(C)C)NC(=O)[C@H](Cc1ccccc1)NC(=O)[C@H](CCC(=O)O)NC(=O)[C@H](C)NC(=O)[C@H](CC(C)C)NC(=O)[C@H](CCCNC(=N)N)NC(=O)[C@H](CCC(N)=O)NC(=O)[C@@H](NC(=O)[C@H](C)NC(=O)[C@@H]1CSSC[C@H](NC(=O)[C@H](CCC(=O)O)NC(=O)[C@H](CCCNC(=N)N)NC(=O)[C@H](CCC(=O)O)NC(=O)CC[C@H](NC(=O)CCCCCCCCCCCCCCCCCCC(=O)O)C(=O)O)C(=O)N[C@@H](CC(N)=O)C(=O)N[C@@H]([C@@H](C)O)C(=O)N[C@@H](C)C(=O)N[C@@H]([C@@H](C)O)C(=O)N1)[C@@H](C)O)C(=O)N[C@@H](CC(C)C)C(=O)N1CCC[C@H]1C(=O)N1CCC[C@H]1C(=O)N[C@H](C(=O)N[C@@H](CC(N)=O)C(=O)N[C@H](C(=O)NCC(=O)N[C@@H](CO)C(=O)N[C@@H](CC(N)=O)C(=O)N[C@H](C(=O)N1CCC[C@H]1C(N)=O)[C@@H](C)O)C(C)C)[C@@H](C)O)
0.291 | 0.266 | {C20 diacid-γGlu}-KCNTATCATQRLAEFLHHSSDNFGPILPPTNVGSHTY-NH2 (disulfide 2-7; SMILES CC[C@H](C)[C@H](NC(=O)[C@@H]1CCCN1C(=O)CNC(=O)[C@H](Cc1ccccc1)NC(=O)[C@H](CC(N)=O)NC(=O)[C@H](CC(=O)O)NC(=O)[C@H](CO)NC(=O)[C@H](CO)NC(=O)[C@H](Cc1c[nH]cn1)NC(=O)[C@H](Cc1c[nH]cn1)NC(=O)[C@H](CC(C)C)NC(=O)[C@H](Cc1ccccc1)NC(=O)[C@H](CCC(=O)O)NC(=O)[C@H](C)NC(=O)[C@H](CC(C)C)NC(=O)[C@H](CCCNC(=N)N)NC(=O)[C@H](CCC(N)=O)NC(=O)[C@@H](NC(=O)[C@H](C)NC(=O)[C@@H]1CSSC[C@H](NC(=O)[C@H](CCCCN)NC(=O)CC[C@H](NC(=O)CCCCCCCCCCCCCCCCCCC(=O)O)C(=O)O)C(=O)N[C@@H](CC(N)=O)C(=O)N[C@@H]([C@@H](C)O)C(=O)N[C@@H](C)C(=O)N[C@@H]([C@@H](C)O)C(=O)N1)[C@@H](C)O)C(=O)N[C@@H](CC(C)C)C(=O)N1CCC[C@H]1C(=O)N1CCC[C@H]1C(=O)N[C@H](C(=O)N[C@@H](CC(N)=O)C(=O)N[C@H](C(=O)NCC(=O)N[C@@H](CO)C(=O)N[C@@H](Cc1c[nH]cn1)C(=O)N[C@H](C(=O)N[C@@H](Cc1ccc(O)cc1)C(N)=O)[C@@H](C)O)C(C)C)[C@@H](C)O) [N-alpha-[(S)-4-Carboxy-4-(19-carboxynonadecanoylamino)butyryl]-[Glu14,His17,Asp21,His35]-pramlintide]
